Assay results: paper PMC5905600, “Structural and Immunodiagnostic Characterization of Synthetic Antigen B Subunits From Echinococcus granulosus and Their Evaluation as Target Antigens for Cyst Viability Assessment” (Clinical Infectious Diseases: An Official Publication of …, 2017)
Where “and” joins values, the source holds several entries; their conditions need not be identical. Equal entries are not always repeated.

Tests used:
[1] = target: Antigen B subunit 2 (AgB2), synthetic (Echinococcus granulosus); experiment: SEC; single synthetic subunits; 50 mM sodium phosphate, 150 mM NaCl, pH 7.4; AKTA Explorer 10; size by calibration with standard proteins (apparent molecular weight)
[2] = target: Antigen B subunit 1 (AgB1), synthetic (Echinococcus granulosus); experiment: cross-linking; each single subunit with a 100-fold molar excess of EDC; SDS-PAGE in reducing and nonreducing conditions; bands digested in situ, LC-MS/MS, cross-linked peptides identified with StavroX
[3] = target: Antigen B subunit 1 (AgB1), synthetic (Echinococcus granulosus); experiment: cross-linking; subunits with a 10-fold or a 100-fold excess of EDC; SDS-PAGE under reducing conditions; western immunoblotting with WSH serum
[4] = target: the molecule itself; experiment: SEC; single synthetic subunits; 50 mM sodium phosphate, 150 mM NaCl, pH 7.4; AKTA Explorer 10; size by calibration with standard proteins (apparent molecular weight)

Question: “Antigen B subunit 2 (AgB2), synthetic (natural protein)” was tested. Which stoichiometry N [1] did it give?
Answer: The stoichiometry N was 6.8 units.

Question: Which results are given for “Antigen B subunit 1 (AgB1), synthetic (natural protein)”?
Answer: stoichiometry N [2]: 2 and 3 and 4; stoichiometry N [3]: 3 and 4 and 5

B1: Antigen B subunit 3 (AgB3), synthetic (natural protein)
chain: DDDDEVTKTKKGVMKAISEIKHFFQSDPLGKKLVEVMKDVASVCEMVRKKARMALKEYVRKLVKEDE
Question: B1 was tested. Which “stoichiometry N” value [4] did it give?
Answer: Its value is 6.6 units.

B2: Antigen B subunit 4 (AgB4), synthetic (natural protein)
chain: KAEPERCKCLIMRKLGEIRDFFRSDPLGQKLAALGRDLTAICQKLQLKVHEVLKKYVKDLLEEEDEDDLK
Question: How did the “stoichiometry N” value [4] turn out when B2 was run?
Answer: Its value is 6.
